Columns and labels:
[1] = tested on: SB100X Q124C transposase Q124C (synthetic construct); assay: cell_activity; conditions: HepG2 colony-forming transposition; hyperactive at 500 and 2500 ng plasmid
[2] = tested on: SB100X Sleeping Beauty transposase (synthetic construct); assay: cell_activity; conditions: HepG2 colony-forming transposition; integrates at TA

For “SB transposon pT2/Puro (puro-tagged, terminal inverted repeats)”, the transposition activity (colony formation, fold vs SB100X) (fold vs SB100X) [1] was 2 and the transposition activity (colony formation, fold vs SB100X) (fold (reference)) [2] was 1.
